Assay results: patent US8865222B2, “Beta-casein assemblies for enrichment of food and beverages and methods of preparation thereof” (Technion Research and Development Foundation Ltd., priority 2008, dated 2014)
Entries after “also recorded” stand apart in the source; their conditions may differ.

Assays:
[1] = Cryo-TEM of beta-casein micelles and vitamin D loaded assemblies; assay type: physicochemical
Experimental: • Cryo-TEM: Specimens were prepared in the controlled environment vitrification system (CEVS) (Bellare et al. Electron Microsc. Technique, 1988, 10; 87-111) at 24° C. and 100% relative humidity to avoid loss of volatiles. First, the solutions were incubated in the CEVS at the desired temperature for 1 h. Then, a 7 μL drop of each solution was placed on a TEM copper grid covered with a perforated carbon film (Pelco International) and blotted with filter paper to form a thin liquid film of the sample (100-200 nm thick). The thinned sample was plunged into liquid ethane at its freezing temperature (−183° C.) to form a vitrified specimen and then transferred to liquid nitrogen ([…]) for storage. The vitrified specimens were examined in a Philips CM120 transmission electron microscope operating at an accelerating voltage of 120 kV. We used an Oxford CT3500 (Oxford Instruments) cryoholder that maintained the specimens below −175° C. during sample transfer and observation. Images were recorded digitally on a cooled Gatan MultiScan 791 CCD camera using DigitalMicrograph 3.1 software (Gatan) in the low-dose imaging mode to minimize beam exposure and electron-beam radiation damage. • ITC: ITC measurements were performed with a VP-ITC calorimeter (MicroCal) at a temperature of 24° C. The reaction cell (V=1.43 mL) was filled with degassed solvent (lactic acid at pH 2.6, or phosphate buffer at pH 7.0). The injector-stirrer syringe (289 μL) was loaded with a beta-casein micellar solution (20 mg/mL). The micellar solution was injected into the reaction cell in 28 steps of 10 μL aliquots each, and the heat flow was measured. During the titration, the stirring speed was 310 rpm. The duration of each injection was 20 s, and the equilibration time between consecutive injections was 3 min. Such an interval was sufficient to equilibrate the reaction cell after every injection. Each experiment was performed at least three times. Calorimetric data analysis was carried out using Origin 5.0 software (MicroCal). • Analytical Ultracentrifugation: Sedimentation equilibrium experiments were performed at 24° C. using a Beckman Optima XL-A (Palo Alto, Calif.) analytical centrifuge at 6000, 10000, and 12000 rpm for the low-pH solutions and at 4000, 6000, and 8000 rpm for the pH 7.0 solutions. Data were collected at 280 nm. The beta-casein solutions were studied at concentrations ranging from 0.2 to 10.0 mg/mL at pH 2.6 and from 0.2 to 2 mg/mL at pH 7.0 and an ionic strength of 0.1. […] The average apparent molecular weight of the micelles at the various protein concentrations was calculated following methods well known in the art (The partial specific volume vj of the solute was taken to be 0.742 cm3/g3, and a solution density F of 1.0044 g/cm3 was measured). At beta-casein concentrations of 2 mg/mL and above under low pH conditions, the plot of the natural logarithm of the measured absorbance versus the square of the radius from the axis of rotation was not linear. To estimate Nagg, the limiting slope toward the outer edge of the sample cell was used to provide dln(c)/dr^2. The molecular weight calculated using this slope was divided by the monomer molecular weight calculated from the beta-casein amino acid sequence (24000).
• Characterization of the beta-casein micelles by cryo-TEM: The structural characteristics of the micelles in the two pH environments were studied by cryo-TEM and SAXS. Cryo-TEM was used to determine the shape of the micelles and to estimate their dimensions between 4 and 40° C. This information was further used to accurately calculate by SAXS the micelles' dimensions and to study how the size and shape are affected by temperature. SAXS measurements also provided the critical micelle concentration (CMC) and the micelle aggregation numbers as a function of temperature. […]

[2] = Storage stability of beta-casein assembly solutions; assay type: physicochemical
Experimental: Preparation of beta-casein assemblies: weighted amounts of lyophilized bovine beta-casein are dissolved in low-pH solution (e.g. ˜6% by weight of lactic acid solution or hydrochloride acid solution, ˜pH 2.1), typically at concentrations ranging from 0.1 mg/mL up to at least 50 mg/ml, to the desired pH (2.5-2.8), below the pI. The pH can be adjusted to the desired values using appropriate buffers. Mixing is done at room temperature, and the solution is equilibrated at 4° C. for ˜36 hr, allowing complete solubilization and formation of the protein assemblies. Thereafter, the solutions can be held at any temperature between 1 and 60° C. Similarly, to prepare beta-casein micelles at neutral pH, weighted amounts of lyophilized protein are added to a buffer at neutral pH (e.g., HEPES buffer, or PBS), at concentration ranging from 0.1 mg/ml to ˜40 mg/ml. Complete solubilization of the protein is achieved within ˜36 hr, at 4° C. A transparent solution is obtained, containing unique nano-sized beta-casein assemblies. The protein solutions are filtered through a porous membrane of 0.45 micron pore size. The beta-casein concentration was determined by measuring the absorbance at 280 nm by an Ultrospec 2000 UV/Visible spectrophotometer (Pharmacia Biotech, England), using an extinction coefficient of 4.6(1%) mM^−1cm^−1. […]

[3] = depending on temperature, pH, solvent composition and ionic strength (Portnaya 2006); cited from earlier work
[4] = lactic acid solution pH 2.6, 4-40 °C

B1: beta-casein: lyophilized bovine beta-casein (~24 kDa milk protein) self-assembled into nano-sized micelles at low or neutral pH (protein, UniProt P02666 16-224, looked up)
Beta-casein: RELEELNVPGEIVESLSSSEESITRINKKIEKFQSEEQQQTEDELQDKIHPFAQTQSLVYPFPGPIPNSLPQNIPPLTQTPVVVPPFLQPEVMGVSKVKEAMAPKHKEMPFPKYPVEPFTESQSLTLTDVENLHLPLPLLQSWMHQPHQPLPPTVMFPPQSVLSLSQSKVLPVPQKAVPYPQRDMPIQAFLLYQEPVLGPVRGPFPIIV
In the case of B1, the micelle shape ([1]; 20 mg/mL, pH 6.7, 0.05M NaCl, 4 °C and 10 °C) is reported as “Flat micelles”, the micelle shape ([1]; 20 mg/mL, pH 6.7, 0.05M NaCl, 16, 25 and 40 °C) is reported as “oblate micelles” and the micelle shape ([1]; 20 mg/mL, pH 6.7, 0.05M NaCl, 60 °C) is reported as “Relatively spheroidal micelles”. The “length of elongated surfaces of micelles” value [1, 4] was 20-25 nm, the micelle shape [1, 4] was “flat disk-like micelles” and the micelle thickness [1, 4] was 3-4 nm. For the same molecule, the width of micelles ([1]; pH 2.6) was “about 3.5 nm”, the “colloidal / storage stability of sterile solution” value ([2]; sterile) was “at least several months; also recorded: colloidally stable for months” and the “storage stability of the solution” value ([2]; stored at 4 °C) was “several weeks”. For the same molecule, the “critical micelle concentration (CMC)” value [3] was 0.05-0.2%.
